Assay results: article PMC9638930, “Structural basis of flagellar motility regulation by the MogR repressor and the GmaR antirepressor in Listeria monocytogenes” (Nucleic Acids Research, 2022)

Key:
[1] = biological target: His6-tagged GmaRFL protein; experiment: ELISA
[2] = biological target: MogRD with individual mutation of the N154, I155 and F156 residues to alanine; experiment: ELISA; wells coated with MogR protein (20 nM); three-fold serially diluted His6-tagged GmaRFL, 2 h at 18°C; detected with anti-His6 antibody
[3] = biological target: MogRD^S114A/Q117A/N118A/K122A (Listeria monocytogenes) (UniProt P0DJO8); experiment: as above
[4] = biological target: full-length GmaR (GmaRFL; residues 1–637) (Listeria monocytogenes); experiment: SEC; Superdex 200 10/300 at room temperature, 20 mM Hepes pH 7.4, 150 mM NaCl, 5 mM βME; GmaRFL, MogRD and their 1:1 molar mixture
[5] = biological target: full-length GmaR (GmaRFL; residues 1–637) (Listeria monocytogenes); experiment: ITC; MicroCal iTC200, 18°C; 250 μM MogRD injected into 25 μM GmaRFL or GmaR_(141-637); 20 mM Hepes pH 7.4, 150 mM NaCl, 5 mM βME; one-site binding model
[6] = biological target: full-length GmaR (GmaRFL; residues 1–637) (Listeria monocytogenes); experiment: native gel or EMSA; native PAGE (6% gel, pH 8.8, Coomassie); GmaR incubated with MogR at a defined molar ratio at 18°C for 30 min in 20 mM Hepes pH 7.4, 150 mM NaCl, 5 mM βME
[7] = biological target: T1, MogR DBD protein (MogRD; residues 1–162) (Listeria monocytogenes, UniProt P0DJO8 1-162); experiment: ITC; MicroCal iTC200, 18°C; 250 μM MogRD injected into 25 μM GmaRFL or GmaR_(141-637); 20 mM Hepes pH 7.4, 150 mM NaCl, 5 mM βME; one-site binding model; settings: both partners purified
T1 construct: Monomer by gel filtration; also called MogR^GmaR; source: E. coli BL21 (DE3), purified (Ni-NTA, Mono S or Mono Q ion exchange); for the crystal co-purified with GmaR_(231-637)
T1 sequence: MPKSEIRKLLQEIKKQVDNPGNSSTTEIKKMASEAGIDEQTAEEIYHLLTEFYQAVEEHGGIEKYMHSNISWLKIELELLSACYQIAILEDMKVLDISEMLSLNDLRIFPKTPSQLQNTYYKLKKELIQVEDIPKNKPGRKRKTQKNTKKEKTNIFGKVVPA

[8] = biological target: T2, MogRD (MogR DNA-binding domain) (Listeria monocytogenes, UniProt P0DJO8 1-162); experiment: FP; 20 mM Hepes pH 7.4, 150 mM NaCl, 5 mM bME; FP room temperature with 1 nM dsDNA; EMSA 18 C 30 min (GmaR inhibition assays at room temperature, 10 min, 2:1 MogR:dsDNA); settings: protein: recombinant; tags: N-terminal His6, thrombin site; blunt
T2 sequence: T1 sequence

MogR1-151 [9] = biological target: T3, MogR1-151 (Listeria monocytogenes, UniProt P0DJO8 1-151); experiment: as above; settings: protein: recombinant; tags: N-terminal His6, thrombin site; blunt
T3 sequence: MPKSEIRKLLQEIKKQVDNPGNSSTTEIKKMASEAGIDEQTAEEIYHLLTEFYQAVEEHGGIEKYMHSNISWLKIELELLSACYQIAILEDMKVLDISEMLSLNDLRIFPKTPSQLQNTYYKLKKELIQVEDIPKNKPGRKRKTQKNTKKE

MogRD Site1-Ala [10] = biological target: T4, MogRD Site1-Ala (Listeria monocytogenes, UniProt P0DJO8 1-162, K152A;T153A;N154A;I155A;F156A); experiment: FP; 100 nM MogR with GmaRFL; no inhibition; 20 mM Hepes pH 7.4, 150 mM NaCl, 5 mM bME; FP room temperature with 1 nM dsDNA; EMSA 18 C 30 min (GmaR inhibition assays at room temperature, 10 min, 2:1 MogR:dsDNA); settings: protein: recombinant; tags: N-terminal His6, thrombin site; chain copies: 2; blunt
MogR1-151 [11] = biological target: T3, MogR1-151; experiment: EMSA; 20 mM Hepes pH 7.4, 150 mM NaCl, 5 mM bME; FP room temperature with 1 nM dsDNA; EMSA 18 C 30 min (GmaR inhibition assays at room temperature, 10 min, 2:1 MogR:dsDNA); settings: protein: recombinant; tags: N-terminal His6, thrombin site; label: none (ethidium bromide stain); blunt
MogRD Site1-Ala [12] = biological target: T4, MogRD Site1-Ala; experiment: as above; settings: protein: recombinant; tags: N-terminal His6, thrombin site; chain copies: 2; label: none (ethidium bromide stain); blunt
[13] = biological target: T2, MogRD (MogR DNA-binding domain); experiment: EMSA; with GmaRFL pretreated at 37 C 15 min; inhibition lost; 20 mM Hepes pH 7.4, 150 mM NaCl, 5 mM bME; FP room temperature with 1 nM dsDNA; EMSA 18 C 30 min (GmaR inhibition assays at room temperature, 10 min, 2:1 MogR:dsDNA); settings: protein: recombinant; tags: N-terminal His6, thrombin site; label: none (ethidium bromide stain); blunt
MogRD SiteMIG-Ala = MogRD SiteMIG-Ala (Listeria monocytogenes, UniProt P0DJO8 1-162, R140A;K141A;R142A;K143A;T144A); experiment: EMSA or FP (Supplementary Fig S9; method and label not given in material); 20 mM Hepes pH 7.4, 150 mM NaCl, 5 mM bME; FP room temperature with 1 nM dsDNA; EMSA 18 C 30 min (GmaR inhibition assays at room temperature, 10 min, 2:1 MogR:dsDNA); settings: protein: recombinant; tags: N-terminal His6, thrombin site; chain copies: 2; label: none (ethidium bromide stain); blunt

MogR DBD protein (MogRD; residues 1–162) (from UniProt P0DJO8) S114A
EC50 ([1]; parent: 167 ± 18): 139 nM

MogR DBD protein (MogRD; residues 1–162) (from UniProt P0DJO8) Q117A
EC50 ([1]; parent: 167 ± 18): 182 nM

MogR DBD protein (MogRD; residues 1–162) (from UniProt P0DJO8) N154A
EC50 ([1]; parent: 220 ± 81): 1230 nM

MogR DBD protein (MogRD; residues 1–162) (from UniProt P0DJO8) K152A
EC50 ([1]; parent: 220 ± 81): 346 nM

MogR DBD protein (MogRD; residues 1–162) (from UniProt P0DJO8) T153A
EC50 ([1]; parent: 220 ± 81): 518 nM

MogR DBD protein (MogRD; residues 1–162) (from UniProt P0DJO8) K122A
EC50 ([1]; parent: 167 ± 18): 160 nM

MogR DBD protein (MogRD; residues 1–162) (from UniProt P0DJO8) N118A
EC50 ([1]; parent: 167 ± 18): 185 nM

MogR DBD protein (MogRD; residues 1–162) (from UniProt P0DJO8) F156A
EC50 ([1]; parent: 220 ± 81): 1420 nM

His6-tagged GmaRFL protein (natural protein)
fold reduction of GmaRFL-binding activity against MogRD [2]: 5 to 6 fold | fold lower GmaRFL-binding activity than MogRD [3]: 2 fold

MogR DBD protein (MogRD; residues 1–162) (from UniProt P0DJO8) T112A
EC50 ([1]; parent: 167 ± 18): 165 nM

MogR DBD protein (MogRD; residues 1–162) (from UniProt P0DJO8) S114A; Q117A; N118A; K122A
EC50 ([1]; parent: 167 ± 18): 342 nM

MogR DBD protein (MogRD; residues 1–162) (from UniProt P0DJO8) I155A
EC50 ([1]; parent: 220 ± 81): 1170 nM

B1: MogR DBD protein (MogRD; residues 1–162) (domain or fragment)
chain: T1 sequence
stoichiometry N [4]: 1 | Kd [5]: 13 nM | stoichiometry N [6]: 1

B2: N-terminally truncated GmaR protein (GmaR_(141-637); residues 141–637) (domain or fragment)
chain: RGVIHEQLEAIDKRPIAAGVAEVKIYHYGYMSEIVEKQDKSDRNLRLLEKEVKNNKNSGFVHFNIGQEMNRLGNKKEALKEFSEAFRLRDHNHYIWAKLSAYHIAELLEQEKRYDESLAIIEEARVIWPNVPEFPLKKANILYVNHQLEDAKEIYQSLLENAAIDYQPIVLYEATNFMPHKMLGTIYLEEKDYTRAMTHFSKAYAENSSDYGVMFQMIMLLSKFHQPKEIFAFMERHHFISSTETGLRLLSMTTQQGYAELSELIVQSLTDVYPPVAEATEVKIATIRNVFPVISESAILFGIKEELIDAADLCLWHYENPQLPIENVMKNSDVGDIYDFIFENGPRISKKRYLFVLERAIALGKGEFADYLLALRNVYHDSINSHIADLFFQYDFADIALDFYNIVDADEVTKQGYINLINYLVDADVLDEALAIAERGIDNFSTDFRFYLWAIKIDTENRANRISEAMDEFPNNRYLAKLLDEVTMLQDTVTNNR
Kd [7]: ~22 nM

B3: operator dsDNA, fluorescein-labeled (dsDNA)
DNA 1: ATTTGATTTTTTAAAAAAATGAAGA
DNA 2: TCTTCATTTTTTTAAAAAATCAAAT
binding result [8]: binds | binding result (MogR1-151 [9]): binds | binding result (MogRD Site1-Ala [10]): binds

B4: operator dsDNA, unlabeled (dsDNA)
DNA 1: ATTTGATTTTTTAAAAAAATGAAGA
DNA 2: TCTTCATTTTTTTAAAAAATCAAAT
binding result (MogR1-151 [11]): binds | binding result (MogRD Site1-Ala [12]): binds | binding result [13]: binds | binding result (MogRD SiteMIG-Ala): no binding
